Measured values reported in patent US7332279B2 (Glycozym APS, priority 1999, dated 2008).

T1: β3Gal-T2 (Homo sapiens, UniProt O43825)
T1 construct: The kinetic properties were determined with partially purified, secreted forms of the enzymes; made in house; host or cells: baculovirus; Sf9 / High Five insect cells, medium
T1 sequence (O43825 46-422 limits assumed): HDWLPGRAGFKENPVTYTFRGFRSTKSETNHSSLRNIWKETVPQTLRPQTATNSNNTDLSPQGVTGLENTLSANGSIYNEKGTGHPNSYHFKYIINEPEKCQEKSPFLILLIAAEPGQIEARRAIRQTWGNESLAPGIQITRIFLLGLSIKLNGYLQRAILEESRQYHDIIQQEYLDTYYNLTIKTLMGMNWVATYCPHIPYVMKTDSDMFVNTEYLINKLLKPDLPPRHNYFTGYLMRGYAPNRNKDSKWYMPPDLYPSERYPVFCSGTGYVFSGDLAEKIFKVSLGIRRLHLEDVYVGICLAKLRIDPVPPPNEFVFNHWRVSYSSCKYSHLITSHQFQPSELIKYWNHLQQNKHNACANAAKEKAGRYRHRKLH

T2: β3Gal-T1 (Homo sapiens, UniProt Q9Y5Z6)
T2 construct: The kinetic properties were determined with partially purified, secreted forms of the enzymes; made in house; host or cells: baculovirus; Sf9 / High Five insect cells, medium
T2 sequence (Q9Y5Z6 27-326 limits assumed): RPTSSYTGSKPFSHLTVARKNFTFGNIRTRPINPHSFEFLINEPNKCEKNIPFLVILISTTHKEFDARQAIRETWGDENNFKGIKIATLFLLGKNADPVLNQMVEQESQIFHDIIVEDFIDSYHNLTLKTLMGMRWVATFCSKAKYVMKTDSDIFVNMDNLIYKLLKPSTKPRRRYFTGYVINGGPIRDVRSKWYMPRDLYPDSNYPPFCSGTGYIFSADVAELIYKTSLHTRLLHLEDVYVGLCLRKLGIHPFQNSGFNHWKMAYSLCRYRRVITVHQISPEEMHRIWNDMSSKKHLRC

T3: β3Gal-T5 (Homo sapiens, UniProt Q9Y2C3, M85T)
T3 construct: designed to exclude the hydrophobic transmembrane segment and to encode amino acid residues 25-310; secretion signal of vector pAcGP67B (gp67); made in house; host or cells: baculovirus; Sf9 cells (media) and High Five cells (serum-free medium, partially purified)
T3 sequence (Q9Y2C3 25-310 M85T): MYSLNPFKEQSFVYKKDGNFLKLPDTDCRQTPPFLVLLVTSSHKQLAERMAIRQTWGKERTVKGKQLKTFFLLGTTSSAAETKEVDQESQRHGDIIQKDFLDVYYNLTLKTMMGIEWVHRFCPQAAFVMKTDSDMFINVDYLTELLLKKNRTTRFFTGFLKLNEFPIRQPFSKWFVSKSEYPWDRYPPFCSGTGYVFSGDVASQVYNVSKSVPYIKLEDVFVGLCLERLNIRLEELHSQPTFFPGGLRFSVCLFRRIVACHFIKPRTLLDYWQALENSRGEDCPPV

B1: Hen egg albumin: glycoprotein acceptor substrate (protein, UniProt P01012 2-386, looked up)
Ovalbumin: GSIGAASMEFCFDVFKELKVHHANENIFYCPIAIMSALAMVYLGAKDSTRTQINKVVRFDKLPGFGDSIEAQCGTSVNVHSSLRDILNQITKPNDVYSFSLASRLYAEERYPILPEYLQCVKELYRGGLEPINFQTAADQARELINSWVESQTNGIIRNVLQPSSVDSQTAMVLVNAIVFKGLWEKAFKDEDTQAMPFRVTEQESKPVQMMYQIGLFRVASMASEKMKILELPFASGTMSMLVLLPDEVSGLEQLESIINFEKLTEWTSSNVMEERKIKVYLPRMKMEEKYNLTSVLMAMGITDVFSSSANLSGISSAESLKISQAVHAAHAEINEAGREVVGSAEAGVDAASVSEEFRADHPFLFCIKHIATNAVLFFGRCVSP

How the values were obtained:
[1] = test system: human colonic β3Gal-transferase activity; conditions: acceptor substrate; read-out: apparent Km, human colonic β3Gal-T activity; cited from earlier work
β3Gal-T2 = target: T1, β3Gal-T2; test: Galactosyltransferase assay with glycoprotein acceptors, β3Gal-T2; type: biochemical; conditions: for β3Gal-T2 activity with glycoprotein acceptor: 0.5 mg glycoprotein, 150 μM UDP-Gal
Description: (§1) The kinetic properties were determined with partially purified, secreted forms of the enzymes. Semipurification of enzymes from serum-free medium of infected High-Five™ cells was performed by sequential Amberlite, DEAE-Sephacel and 5-Sepharose chromatography as described previously (Wandall, H. H., Hassan, H., Mirgorodskaya, E., et al. Substrate specificities of three. members of the human UDP-N-acetyl-alpha-D-galactosamine:Polypeptide Nacetylgalactosaminyltransferase family, GalNAc-T1, -T2, and -T3. J. Biol. Chem. 272:23503-23514, 1997). Comparisons of enzymes were performed relatively to the activity obtained with βGlcNAc-Bz1 (Tables II and III). Full length enzymes were assayed with 1% Triton CF54 homogenates of washed cells. Enzyme assays were performed in 50 μl total reaction mixtures containing 25 mM Cacodylate (pH 7.5), 10 mM MnCl2, 0.25% Triton X-100, 100 μM UDP-[^14C]-Gal (2,600 cpm/nmol) (Amersham), and varying concentrations of acceptor substrates (Sigma) (see Table I for structures). Reaction products were quantified by Dowex-1 chromatography. […] The transfer of Gal was evaluated after acid precipitation by filtration through Whatman GF/C glass fibre filters. […] Assays with glycolipid acceptors were conducted as previously described (Holmes, E. H. Characterization and membrane organization of beta 1-3- and beta 1-4-galactosyltransferases from human colonic adenocarcinoma cell lines Cob 205 and SW403: basis for preferential synthesis of type 1 chain lacto-series carbohydrate structures. Arch Biochem Biophys 270:630-646, 1989) in reaction mixtures containing 2.5 μmol HEPES buffer, pH 7.2, μmol MnCl2, 100 μg taurodeoxycholate or Triton CF-54, 20 μg acceptor glycolipid, 15 nmol UDP-[^14C]-galactose (13,000 cpm/nmol) and enzyme in a total volume of 100 μl. Conditions for incubation and product isolation were as previously described (Id.).

β3Gal-T1 = target: T2, β3Gal-T1; test: Galactosyltransferase assay with glycoprotein acceptors, β3Gal-T1; type: biochemical; conditions: for β3Gal-T1 activity with glycoprotein acceptor: 0.5 mg glycoprotein, 150 μM UDP-Gal
Description: as §1

β3Gal-T5 [2] = target: T3, β3Gal-T5; test: Galactosyltransferase assay with glycoprotein acceptors, β3Gal-T5; type: biochemical; conditions: for β3Gal-T5 activity with glycoprotein acceptor: 0.5 mg glycoprotein, 150 μM UDP-Gal
Description: as §1

[3] = test system: β3Gal-T activity from Colo205 cells; conditions: acceptor substrate; cited from earlier work
β3Gal-T5 [4] = target: T3, β3Gal-T5; test: Galactosyltransferase assay with glycolipid acceptors, β3Gal-T5; type: biochemical
Description: as §1

| Molecule | Km [1] | β3Gal-T2 ratio glycoprotein / β-D-GlcNAc-Bzl (β3Gal-T2) | β3Gal-T2 activity with glycoprotein acceptor (β3Gal-T2) | β3Gal-T1 ratio glycoprotein / β-D-GlcNAc-Bzl (β3Gal-T1) | β3Gal-T1 activity with glycoprotein acceptor (β3Gal-T1) | β3Gal-T5 ratio glycoprotein / β-D-GlcNAc-Bzl (β3Gal-T5 [2]) | β3Gal-T5 activity with glycoprotein acceptor (β3Gal-T5 [2]) | Km [3] | β3Gal-T5 activity with glycolipid acceptor, Triton CF-54 (β3Gal-T5 [4]; 100 μg Triton CF-54/100 μl, 20 μg glycolipid) | β3Gal-T5 activity with glycolipid acceptor, TDOC (β3Gal-T5 [4]; 100 μg taurodeoxycholate/100 μl, 20 μg glycolipid) | Km (β3Gal-T5 [4]; in the presence taurodeoxycholate, based on data points at low concentrations (substrate inhibition), read-out: apparent Km of β3Gal-T5) |
| --- | --- | --- | --- | --- | --- | --- | --- | --- | --- | --- | --- |
| CC(=O)N[C@H]1[C@H](O[C@H]2[C@@H](O)[C@@H](CO)O[C@@H](O[C@H]3[C@H](O)[C@@H](O)C(O)O[C@@H]3CO)[C@@H]2O)O[C@H](CO)[C@@H](O)[C@@H]1O (stereo partly drawn) [β-D-GlcNAc(1-3)-D-β-Gal(1-4)-D-β-Glc] | 2900 µM |  |  |  |  |  |  |  |  |  |  |
| Asialo-agalacto-fetuin: glycoprotein acceptor substrate |  | (1.8) | 0.07 mmol/min | (0.3) | 0.01 mmol/min | (0.0) | 0.0 mmol/min |  |  |  |  |
| Bovine submaxillary mucin |  | (0.0) | 0.0 mmol/min | (0.0) | 0.0 mmol/min | (0.4) | 0.04 mmol/min |  |  |  |  |
| GlcNAcβ1-3Galβ1-4Glcβ1-Cer [Lc3] |  |  |  |  |  |  |  | 13 µM | 3.6 µmol/h/mg | 4.4 µmol/h/mg | ~2 µM |
| Orosomucoid: glycoprotein acceptor substrate |  | (0.0) | 0.0 mmol/min | (0.0) | 0.0 mmol/min | (0.0) | 0.0 mmol/min |  |  |  |  |
| B1 |  | (0.5) | 0.02 mmol/min | (0.0) | 0.0 mmol/min | (0.0) | 0.0 mmol/min |  |  |  |  |
